Several values for one entry are separate records, joined by “and”; a condition that tells them apart may be missing. Equal entries are not always repeated.
B1: Mouse hybridoma antibody ADWA-11 (antibody, V domains shown)
VH: EVQLQQSGAELVRPGAFVKLSCKASGFNIKDYYMNWVLQRPEQGLEWIGWIDPDNGNTIYDPKFQGKASITADTSSNTAYLQLSSLTSEDTAVYYCARRLLMDYWGQGTSVTVSS
VL: DIVMTQAAPSVPVTPGESVSISCRSTKSLLHFNGNTYLFWFLQRPGQSPQRLIYYMSNLASGVPDRFSGRGSGTDFTLRISRVEAEDVGVYYCMQSLEYPFTFGTGTKLEIK
notes: Whole native murine IgG from the hybridoma; also called mADWA11; mADWA-11
B2: ADWA-11_4 mut (antibody, mouse IgG1, V domains shown)
VH: B1 VH
VL: B1 VL
B3: Mouse hybridoma ADWA-11 Fab (Fab, V domains shown)
VH: B1 VH
VL: B1 VL
notes: Fab; also called mFab; Ms ADWA11 Fab
B4: hIgG_VH05VK01 (antibody, V domains shown)
VH: EVQLVESGGGLVQPGGSLRLSCAASGFNIKDYYMNWVRQAPGKGLEWVGWIDPDNGNTIYDPKFQGRFTISADTSKNSAYLQMNSLRAEDTAVYYCARRLLMDYWGQGTLVTVSS
VL: DIQMTQSPSSLSASVGDRVTITCRSTKSLLHFNGNTYLFWYQQKPGKAPKRLIYYMSNLASGVPSRFSGSGSGTDFTLTISSLQPEDFATYYCMQSLEYPFTFGQGTKVEIKR
B5: ADWA11 VH05/VK01 Fab (Fab, V domains shown)
VH: B4 VH
VL: DIQMTQSPSSLSASVGDRVTITCRSTKSLLHFNGNTYLFWYQQKPGKAPKRLIYYMSNLASGVPSRFSGSGSGTDFTLTISSLQPEDFATYYCMQSLEYPFTFGQGTKVEIK
notes: Fab; also called VH05-2_VK01 parental

Experiments:
[1] = target: T1, human αvβ8 integrin on U251 cells (human, UniProt P06756 31-1048); test: cell-based or functional assay
[2] = target: recombinant human αvβ8 integrin (human) (UniProt P06756); test: ELISA on human αvβ8 (legend box: human avb8), mAb titration
[3] = target: T2, recombinant human αvβ3 integrin (human, UniProt P06756 31-992; P05106 27-718); test: ELISA (title Specificity Binding ELISA), absorbance 450 nm against [mAb] (nM)
T2 construct: Used in ELISA and immobilised on the Biacore chip; construct not described; also called hαvβ3; AVB3

[4] = target: T3, recombinant human αvβ6 integrin (human, UniProt P06756 31-992; P18564 22-707); test: as above
T3 construct: Used in ELISA and immobilised on the Biacore chip; construct not described; also called hαvβ6; AVB6

[5] = target: T1, human αvβ8 integrin on U251 cells; test: apparent KD, flow cytometry on U251 cells
[6] = target: T1, human αvβ8 integrin on U251 cells; test: flow cytometry, IgG binding to U251 cells (ΔMFI, background subtracted); EC50 unit inferred, axis Log10 [Ab] (nM); Table 7 of the text gives the rounded value as U251 app KD 823 pM
[7] = target: T2, recombinant human αvβ3 integrin; test: SPR (Biacore)
[8] = target: T3, recombinant human αvβ6 integrin; test: SPR (Biacore)
[9] = target: T1, human αvβ8 integrin on U251 cells; test: cell-based or functional assay; remark: listed apart in the source
[10] = target: recombinant human αvβ8 integrin (human) (UniProt P06756); test: SPR (Biacore), Fab affinity of Table 3
[11] = target: recombinant human αvβ8 integrin (human) (UniProt P06756); test: SPR (Biacore T200), Fab over biotinylated recombinant αvβ8 on streptavidin chip, n>=3
[12] = target: T4, recombinant mouse αvβ8 integrin (mouse, UniProt P43406 31-988; Q0VBD0 22-681, limits assumed); test: as above
T4 construct: Recombinant protein immobilised on the Biacore chip
Protocol: (§1) More specifically, recombinant αvβ8 integrin (e.g., R&D Systems) was biotin labeled via primary amines and immobilized on a Sensor Chip SA using a Biacore™ T200 instrument (GE Healthcare Life Sciences). Fab binding experiments were performed at 25° C. using a 30 μl/min flow rate in 0.01 M HEPES pH 7.4, 0.15 M NaCl, 1-2 mM MgCl₂, and 0.005% v/v surfactant P20 (HBS-P) buffer. Association was monitored for 5-10 minutes and dissociation for a further 15-20 minutes for each Fab concentration. After each injection, the chip surface was regenerated with IgG elution buffer (Thermo Fisher Scientific). All data was analyzed using the Biacore™ T200 Evaluation software. Data was dual background subtracted using the adjacent flow cell coupled with streptavidin without captured integrin, and buffer only injections. Kinetic constants for at least three experiments were obtained and reported as the mean.
(§2) To evaluate the monomeric KD of the Fab ADWA11 2.4, also referred to herein as ADWA-11 VH05-2/VK01(2.4) and ADWA11 5-2 2.4, and the parental mouse IgG, recombinant human, cynomolgus, mouse, and rat αvβ8 was immobilized on a Biacore chip and the ka and kd of the Fabs were determined as generally described herein (Table 6).

[13] = target: T5, recombinant cynomolgus monkey αvβ8 integrin (cynomolgus monkey, limits assumed); test: as above
T5 construct: Recombinant protein immobilised on the Biacore chip; also called cyno αvβ8; cynomolgus αvβ8
T5 chain 1: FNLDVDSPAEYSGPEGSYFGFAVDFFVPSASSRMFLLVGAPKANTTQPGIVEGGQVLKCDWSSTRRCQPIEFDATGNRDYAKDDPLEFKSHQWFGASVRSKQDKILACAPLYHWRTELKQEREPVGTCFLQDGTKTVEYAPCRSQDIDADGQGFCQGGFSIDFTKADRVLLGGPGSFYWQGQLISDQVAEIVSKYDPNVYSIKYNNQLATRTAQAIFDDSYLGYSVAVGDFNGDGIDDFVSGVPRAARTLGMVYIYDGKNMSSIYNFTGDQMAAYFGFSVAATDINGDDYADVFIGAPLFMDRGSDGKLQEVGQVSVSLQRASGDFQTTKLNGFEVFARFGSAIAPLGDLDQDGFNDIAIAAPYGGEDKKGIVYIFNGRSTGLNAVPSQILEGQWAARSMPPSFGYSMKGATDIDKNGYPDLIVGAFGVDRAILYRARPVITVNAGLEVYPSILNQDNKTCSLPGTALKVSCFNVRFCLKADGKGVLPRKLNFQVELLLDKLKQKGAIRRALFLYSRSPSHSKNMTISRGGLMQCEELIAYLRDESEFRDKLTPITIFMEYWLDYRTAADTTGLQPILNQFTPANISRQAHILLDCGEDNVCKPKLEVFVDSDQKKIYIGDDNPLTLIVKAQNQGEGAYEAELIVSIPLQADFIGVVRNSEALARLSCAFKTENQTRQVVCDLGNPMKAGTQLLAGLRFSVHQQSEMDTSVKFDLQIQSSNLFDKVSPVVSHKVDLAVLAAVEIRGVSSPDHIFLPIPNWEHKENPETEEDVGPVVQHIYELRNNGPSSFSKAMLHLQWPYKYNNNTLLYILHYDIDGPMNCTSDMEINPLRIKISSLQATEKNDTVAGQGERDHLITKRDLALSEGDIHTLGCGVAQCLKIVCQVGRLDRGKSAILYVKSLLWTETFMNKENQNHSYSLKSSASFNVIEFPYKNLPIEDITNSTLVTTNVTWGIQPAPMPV
T5 chain 2: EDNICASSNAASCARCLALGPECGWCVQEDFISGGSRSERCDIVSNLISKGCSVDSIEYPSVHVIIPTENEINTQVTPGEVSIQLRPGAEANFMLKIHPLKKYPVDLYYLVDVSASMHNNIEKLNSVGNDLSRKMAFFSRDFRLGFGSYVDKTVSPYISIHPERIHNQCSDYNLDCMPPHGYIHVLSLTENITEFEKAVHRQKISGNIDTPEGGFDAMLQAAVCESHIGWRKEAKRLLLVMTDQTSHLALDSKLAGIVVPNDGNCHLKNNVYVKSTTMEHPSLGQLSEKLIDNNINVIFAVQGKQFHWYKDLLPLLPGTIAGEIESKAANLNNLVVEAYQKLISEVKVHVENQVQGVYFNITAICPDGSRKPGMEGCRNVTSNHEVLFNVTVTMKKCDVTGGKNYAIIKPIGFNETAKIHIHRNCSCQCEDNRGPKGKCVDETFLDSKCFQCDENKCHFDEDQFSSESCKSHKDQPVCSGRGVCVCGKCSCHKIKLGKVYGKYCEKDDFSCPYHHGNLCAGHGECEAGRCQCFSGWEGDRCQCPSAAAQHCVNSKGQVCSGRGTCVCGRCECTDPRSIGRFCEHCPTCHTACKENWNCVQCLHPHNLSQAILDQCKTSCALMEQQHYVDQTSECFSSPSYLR
Protocol: as §1, §2

[14] = target: recombinant human αvβ8 integrin (human) (UniProt P06756); test: SPR (Biacore), Fab over immobilised recombinant αvβ8; the upper end is the human value of Tables 3 and 6
[15] = target: T1, human αvβ8 integrin on U251 cells; test: flow cytometry, IgG binding to U251 cells (ΔMFI, background subtracted); EC50 unit inferred, axis Log10 [Ab] (nM); Table 7 of the text gives U251 app KD 430 pM
[16] = target: recombinant human αvβ8 integrin (human) (UniProt P06756); test: ELISA (DELFIA counts) on human αvβ8, Fab titration
Target sequence in this assay (P06756 31-992 limits assumed, form in doubt, chain 1 of 2): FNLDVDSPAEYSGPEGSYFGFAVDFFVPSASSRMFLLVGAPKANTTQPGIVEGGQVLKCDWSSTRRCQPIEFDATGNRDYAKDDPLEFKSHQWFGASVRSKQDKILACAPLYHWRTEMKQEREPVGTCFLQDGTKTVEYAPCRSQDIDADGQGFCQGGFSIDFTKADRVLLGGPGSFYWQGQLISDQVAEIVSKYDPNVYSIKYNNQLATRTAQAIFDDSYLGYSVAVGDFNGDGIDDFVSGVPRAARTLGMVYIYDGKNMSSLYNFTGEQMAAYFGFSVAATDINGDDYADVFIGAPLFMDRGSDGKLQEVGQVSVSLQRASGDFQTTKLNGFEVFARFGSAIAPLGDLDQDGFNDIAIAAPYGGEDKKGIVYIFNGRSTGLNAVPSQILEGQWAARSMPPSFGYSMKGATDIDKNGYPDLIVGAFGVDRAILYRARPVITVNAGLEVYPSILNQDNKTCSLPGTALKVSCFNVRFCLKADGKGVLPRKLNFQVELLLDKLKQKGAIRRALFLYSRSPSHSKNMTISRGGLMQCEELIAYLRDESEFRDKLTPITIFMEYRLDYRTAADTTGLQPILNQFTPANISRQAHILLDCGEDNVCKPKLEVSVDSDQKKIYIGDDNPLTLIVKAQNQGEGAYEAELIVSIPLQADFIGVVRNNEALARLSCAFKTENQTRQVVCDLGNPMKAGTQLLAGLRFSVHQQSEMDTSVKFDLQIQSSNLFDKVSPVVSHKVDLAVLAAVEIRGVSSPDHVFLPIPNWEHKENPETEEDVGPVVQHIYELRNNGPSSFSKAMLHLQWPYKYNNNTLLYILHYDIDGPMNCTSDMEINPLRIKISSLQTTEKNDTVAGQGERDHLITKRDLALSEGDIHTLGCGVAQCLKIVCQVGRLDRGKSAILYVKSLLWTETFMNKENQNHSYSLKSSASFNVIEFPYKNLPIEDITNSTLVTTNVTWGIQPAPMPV
Target sequence in this assay (chain, as listed by the source limits assumed, form in doubt, chain 2 of 2): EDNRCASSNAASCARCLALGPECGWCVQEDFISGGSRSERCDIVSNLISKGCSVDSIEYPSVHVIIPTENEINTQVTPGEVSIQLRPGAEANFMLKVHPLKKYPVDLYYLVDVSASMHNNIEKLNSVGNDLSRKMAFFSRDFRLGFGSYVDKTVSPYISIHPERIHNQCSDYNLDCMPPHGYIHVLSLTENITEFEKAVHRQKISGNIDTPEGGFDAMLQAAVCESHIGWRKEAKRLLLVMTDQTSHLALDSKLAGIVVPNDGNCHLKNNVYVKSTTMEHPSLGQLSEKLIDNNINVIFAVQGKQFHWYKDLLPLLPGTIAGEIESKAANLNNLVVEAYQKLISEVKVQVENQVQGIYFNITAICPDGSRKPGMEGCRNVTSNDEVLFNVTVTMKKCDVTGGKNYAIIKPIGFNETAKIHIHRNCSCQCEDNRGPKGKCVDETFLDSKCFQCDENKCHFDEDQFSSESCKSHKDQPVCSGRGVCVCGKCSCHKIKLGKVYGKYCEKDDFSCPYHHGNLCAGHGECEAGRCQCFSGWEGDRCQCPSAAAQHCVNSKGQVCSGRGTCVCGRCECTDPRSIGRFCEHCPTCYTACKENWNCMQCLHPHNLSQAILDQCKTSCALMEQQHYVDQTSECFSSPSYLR

[17] = target: T6, recombinant rat αvβ8 integrin (rat, UniProt F1LZX9 31-987; A0A0G2JVU1 43-682); test: SPR (Biacore T200), Fab over biotinylated recombinant αvβ8 on streptavidin chip, n>=3
T6 construct: Recombinant protein immobilised on the Biacore chip
Protocol: as §1, §2

[18] = target: recombinant human αvβ8 integrin (human) (UniProt P06756); test: ELISA (DELFIA counts) on human αvβ8, Fab titration; identity of the molecule see the row before

T4 sequence (P43406 31-988 limits assumed, chain 1 of 2): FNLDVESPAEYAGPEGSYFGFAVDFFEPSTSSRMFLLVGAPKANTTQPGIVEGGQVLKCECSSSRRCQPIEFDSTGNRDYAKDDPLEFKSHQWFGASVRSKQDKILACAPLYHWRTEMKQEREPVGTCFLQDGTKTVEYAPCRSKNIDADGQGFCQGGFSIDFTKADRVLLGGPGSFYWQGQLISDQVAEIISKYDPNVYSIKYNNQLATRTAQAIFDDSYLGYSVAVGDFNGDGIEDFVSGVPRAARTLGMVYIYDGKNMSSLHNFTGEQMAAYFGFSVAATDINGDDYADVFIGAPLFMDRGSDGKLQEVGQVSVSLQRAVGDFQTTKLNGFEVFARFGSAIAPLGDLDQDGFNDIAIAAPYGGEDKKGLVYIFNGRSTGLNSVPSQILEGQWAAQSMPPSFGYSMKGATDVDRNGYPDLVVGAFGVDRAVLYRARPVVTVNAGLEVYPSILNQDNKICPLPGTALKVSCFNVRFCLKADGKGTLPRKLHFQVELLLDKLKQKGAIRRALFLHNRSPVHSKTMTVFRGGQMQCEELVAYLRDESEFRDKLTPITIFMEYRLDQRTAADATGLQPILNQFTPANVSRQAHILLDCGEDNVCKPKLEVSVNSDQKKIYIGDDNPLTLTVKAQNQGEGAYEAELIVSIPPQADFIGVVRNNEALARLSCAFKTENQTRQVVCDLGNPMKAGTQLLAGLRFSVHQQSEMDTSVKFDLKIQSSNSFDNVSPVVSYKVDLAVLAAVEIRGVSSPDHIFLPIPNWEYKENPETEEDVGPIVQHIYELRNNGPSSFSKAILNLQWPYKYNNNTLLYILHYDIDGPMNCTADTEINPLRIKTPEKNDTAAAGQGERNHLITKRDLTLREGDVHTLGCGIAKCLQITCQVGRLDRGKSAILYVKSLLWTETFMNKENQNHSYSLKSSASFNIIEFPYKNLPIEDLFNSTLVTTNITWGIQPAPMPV
T4 sequence (Q0VBD0 22-681 limits assumed, chain 2 of 2): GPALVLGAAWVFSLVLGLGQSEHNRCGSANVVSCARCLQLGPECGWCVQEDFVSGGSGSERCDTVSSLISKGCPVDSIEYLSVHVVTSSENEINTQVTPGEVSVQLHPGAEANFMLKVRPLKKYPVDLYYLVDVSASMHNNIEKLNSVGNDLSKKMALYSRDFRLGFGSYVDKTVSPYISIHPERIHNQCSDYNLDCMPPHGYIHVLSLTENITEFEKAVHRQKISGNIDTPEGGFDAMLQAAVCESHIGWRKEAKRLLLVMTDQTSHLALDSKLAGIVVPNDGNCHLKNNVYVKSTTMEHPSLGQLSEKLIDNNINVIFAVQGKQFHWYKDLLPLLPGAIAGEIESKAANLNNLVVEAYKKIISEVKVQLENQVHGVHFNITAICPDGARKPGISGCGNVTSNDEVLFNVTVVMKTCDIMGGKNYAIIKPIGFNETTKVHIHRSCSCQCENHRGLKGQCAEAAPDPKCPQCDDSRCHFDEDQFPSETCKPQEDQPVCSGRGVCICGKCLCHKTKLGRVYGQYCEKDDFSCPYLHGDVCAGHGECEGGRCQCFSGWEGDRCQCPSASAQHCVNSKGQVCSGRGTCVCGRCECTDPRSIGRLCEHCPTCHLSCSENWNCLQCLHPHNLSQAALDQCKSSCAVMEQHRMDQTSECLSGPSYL
T2 sequence (P05106 27-718 limits assumed, one chain of several): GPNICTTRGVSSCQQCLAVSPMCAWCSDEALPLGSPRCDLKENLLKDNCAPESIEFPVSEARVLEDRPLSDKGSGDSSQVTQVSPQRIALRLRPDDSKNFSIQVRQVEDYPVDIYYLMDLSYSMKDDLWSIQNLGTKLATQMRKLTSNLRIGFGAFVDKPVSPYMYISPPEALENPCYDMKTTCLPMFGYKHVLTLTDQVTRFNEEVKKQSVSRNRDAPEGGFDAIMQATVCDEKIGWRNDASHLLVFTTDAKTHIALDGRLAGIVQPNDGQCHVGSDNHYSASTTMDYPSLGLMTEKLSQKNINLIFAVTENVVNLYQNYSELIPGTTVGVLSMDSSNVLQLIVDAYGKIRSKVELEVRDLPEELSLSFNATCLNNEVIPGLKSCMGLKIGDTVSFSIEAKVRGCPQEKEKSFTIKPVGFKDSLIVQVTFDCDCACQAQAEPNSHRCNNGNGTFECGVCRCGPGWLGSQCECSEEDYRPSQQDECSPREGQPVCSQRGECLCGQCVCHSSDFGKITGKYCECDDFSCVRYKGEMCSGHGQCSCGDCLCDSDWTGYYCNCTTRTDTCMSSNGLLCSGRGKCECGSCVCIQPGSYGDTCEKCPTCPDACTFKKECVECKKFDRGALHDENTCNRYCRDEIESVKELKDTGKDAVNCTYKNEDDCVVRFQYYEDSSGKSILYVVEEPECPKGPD
T3 sequence (P18564 22-707 limits assumed, one chain of several): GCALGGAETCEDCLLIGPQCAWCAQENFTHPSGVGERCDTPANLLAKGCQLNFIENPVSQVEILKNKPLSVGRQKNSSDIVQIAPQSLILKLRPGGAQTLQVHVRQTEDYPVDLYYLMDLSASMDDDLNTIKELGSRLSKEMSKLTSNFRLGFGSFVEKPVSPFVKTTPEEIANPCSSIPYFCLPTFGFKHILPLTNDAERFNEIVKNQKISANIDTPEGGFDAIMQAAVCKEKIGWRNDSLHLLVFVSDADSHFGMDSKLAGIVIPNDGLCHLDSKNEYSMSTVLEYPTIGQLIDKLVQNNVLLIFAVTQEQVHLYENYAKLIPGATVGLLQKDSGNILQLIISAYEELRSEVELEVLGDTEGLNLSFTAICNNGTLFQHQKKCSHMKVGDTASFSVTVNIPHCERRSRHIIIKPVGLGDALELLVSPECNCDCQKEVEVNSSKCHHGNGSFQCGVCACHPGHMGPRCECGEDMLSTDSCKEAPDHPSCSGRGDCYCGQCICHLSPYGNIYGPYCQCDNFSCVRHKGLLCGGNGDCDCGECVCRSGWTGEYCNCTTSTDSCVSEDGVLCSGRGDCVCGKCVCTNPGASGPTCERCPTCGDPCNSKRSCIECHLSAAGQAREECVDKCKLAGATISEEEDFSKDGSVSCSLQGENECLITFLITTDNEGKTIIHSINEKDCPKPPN

Row | Binder | IgG Potency TGFB Assay IC50 (pM) [1] [pM] | Kd [5] [nM] | EC50 value measured by apparent affinity in the TGF-β transactivation assay [9] [nM] | Kd [10] | Kd [11] [nM] | koff [11] [s⁻¹] | kon [11] [M⁻¹ s⁻¹] | Kd [12] [nM] | koff [12] [s⁻¹] | kon [12] [M⁻¹ s⁻¹] | Kd [13] [nM] | koff [13] [s⁻¹] | kon [13] [M⁻¹ s⁻¹] | other results
1 | B1 | 183 | – | – | – | – | – | – | – | – | – | – | – | – | EC50 (read off the curve) [2]: 0.3 nM; binding result [3]: no binding (tested: about 500 nM); binding result [4]: no binding (tested: about 500 nM)
2 | B2 | – | 0.823 | – | – | – | – | – | – | – | – | – | – | – | EC50 [6]: 0.823 nM
3 | B3 | – | – | 4.6 | 0.536 nM | 0.536 | 4.86e-05 | 92200 | 0.489 | 5.03e-05 | 103000 | 0.507 | 4.97e-05 | 98100 | binding result [7]: no binding; binding result [8]: no binding; kon [10]: 92200 M⁻¹ s⁻¹; Kd [14]: 0.489 to 0.536 nM
4 | B4 | 148 | 0.43 | – | – | – | – | – | – | – | – | – | – | – | EC50 [15]: 0.434 nM
5 | B5 | – | – | 1.3 | 0.05 nM and < 0.1 nM | 0.118 | 2.37e-05 | 200000 | ≤ 0.1 | ≤ 2e-05 | 220000 | ≤ 0.1 | ≤ 2e-05 | 225000 | fold lower KD than the mouse hybridoma antibody ADWA-11 [10]: > 5 fold; EC50 (read off the curve) [16]: 1 nM; Kd [17]: 0.16 nM; koff [17]: 3.1e-05 s⁻¹; kon [17]: 194000 M⁻¹ s⁻¹; EC50 (read off the curve) [18]: 1 nM
